# Assay results as given in US20250352589A1, “OXYTOCIN-MIMETIC COMPOSITIONS AND USES THEREOF” (INSTITUT NATIONAL DE LA SANTÉ ET DE LA RECHERCHE MÉDICALE, priority 2021, published 2025).
# Read-outs that look alike come from different tables or passages of the source.
# T1: human OT-R (Homo sapiens, UniProt P30559)
# T1 construct: expressed in transfected cells; host or cells: HEK cells
# T1 sequence (P30559 1-389): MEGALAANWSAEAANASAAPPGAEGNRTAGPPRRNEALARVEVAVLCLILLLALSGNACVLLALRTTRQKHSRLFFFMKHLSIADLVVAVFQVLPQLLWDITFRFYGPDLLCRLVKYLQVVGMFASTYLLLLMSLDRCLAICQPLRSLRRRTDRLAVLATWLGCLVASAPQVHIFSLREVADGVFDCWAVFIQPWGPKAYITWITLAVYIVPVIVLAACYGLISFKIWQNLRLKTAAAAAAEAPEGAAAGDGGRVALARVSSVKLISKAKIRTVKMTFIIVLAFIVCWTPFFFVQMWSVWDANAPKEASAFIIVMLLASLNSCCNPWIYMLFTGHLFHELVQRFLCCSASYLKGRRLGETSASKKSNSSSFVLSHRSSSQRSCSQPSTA
# Assays:
# human OT-R = biological target: T1, human OT-R; assay: Activation of OT-R by bacterial peptides: calcium release from HEK cells transfected with human OT-R; format: cell-based; conditions: for specific activation of OTR: OTR expressing HEK cells; for Emax: mean ± standard error, maximal amplitude of Ca2+ release, HEK cells expressing human OT-R; for activation of the oxytocin receptor: statement in the description, micromolar scale
# anti-oxytocin antibodies = assay: Proteomic analysis: 2D gel and OT immunodetection (OT IgG) of bacterial proteomes; format: binding
# Description: In this study, 14 bacteria-extracted proteomes were analyzed: (i) from 5 Bifidobacterium species grown in anaerobe conditions, (ii) from 5 Lactobacillus species grown in anaerobe culture conditions and (iii) from 4 aerotolerant Lactobacillus species grown in aerobe conditions. Each proteome analysis was performed in triplicate and was further separated in 3 fractions i.e. soluble (S), membrane (M), and residual (R) resulting in 9 samples/proteome). Each fraction was initially screened by western blot (WB) for the presence OT-like reactivity to validate it for further 2D-SDS-PAGE analysis. […] Finally, all fractions have been analyzed using 2D gel technique and OT immunodetection. 2D gel electrophoresis allowed to improve visibility of the less abundant proteins in a complex sample. Thereby, all samples were analyzed at least once with this method to scan optimally each proteome in the search for OT mimicry. […] The specificity for OT-like staining was controlled by pre-adsorption of OT-IgG with OT peptide.
# All protein spots in silver nitrate staining gels corresponding to OT-like spots in the membrane were excised and analyzed by mass spectrometry
# human oxytocin receptor = human oxytocin receptor (human, UniProt P30559); assay: cell-based or functional assay
# [1] = 2D-immunoblotting, spots identified by mass spectrometry
molecule,measurement,setting,value
H-DYVKNMITG-OH [Peptide 1],specific activation of OTR,human OT-R,specifically activated OTR
same,most efficient OT-like peptides,human OT-R; judged by EC50 and maximal amplitude of Ca2+ release,most efficient
same,Emax,human OT-R,273.8 ± 35.03
same,activation of the oxytocin receptor,human OT-R,strongly activate the oxytocin receptor at a micromolar scale
CSCC[C@H](NC(=O)[C@@H]1CCCN1C(=O)CNC(=O)[C@H](CC(N)=O)NC(=O)[C@H](Cc1c[nH]c2ccccc12)NC(=O)[C@@H](NC(=O)[C@@H](NC(=O)[C@@H](NC(=O)[C@@H](N)CCCCN)[C@@H](C)O)C(C)C)C(C)C)C(=O)NCC(=O)O [Peptide 3],specific activation of OTR,human OT-R,specifically activated OTR
same,Emax,human OT-R,302 ± 35.41
same,activation of the oxytocin receptor,human OT-R,strongly activate the oxytocin receptor at a micromolar scale
CC[C@H](C)[C@H](NC(=O)[C@H](Cc1ccc(O)cc1)NC(=O)[C@@H](N)CC(=O)O)C(=O)N[C@@H](CCCCN)C(=O)N[C@@H](CC(N)=O)C(=O)N[C@@H](CCSC)C(=O)N[C@H](C(=O)N[C@H](C(=O)NCC(=O)O)[C@@H](C)O)[C@@H](C)CC [Peptide 8],specific activation of OTR,human OT-R,specifically activated OTR
same,Emax,human OT-R,140 ± 71.48
same,activation of the oxytocin receptor,human OT-R,strongly activate the oxytocin receptor at a micromolar scale
H-LTITNVPNS-OH [Peptide 5],specific activation of OTR,human OT-R,specifically activated OTR
same,Emax,human OT-R,272 ± 99.09
"H-SYFYNKEDG-OH [Peptide 10, LG]",activation of the oxytocin receptor,human OT-R,strongly activate the oxytocin receptor at a micromolar scale
H-DFVKNMITG-OH [Peptide 17],Emax,human OT-R,135.3 ± 8.92
H-KFVNDNELG-OH [Peptide 2],specific activation of OTR,human OT-R,specifically activated OTR
same,Emax,human OT-R,164.8 ± 107.9
same,activation of the oxytocin receptor,human OT-R,strongly activate the oxytocin receptor at a micromolar scale
Enolase 2 [SEQ ID NO:8],immune cross-reaction with anti-oxytocin antibodies,anti-oxytocin antibodies; [1],immune cross-react with anti-oxytocin antibodies
"H-QYIQEGR-OH [Peptide 6, H-QYIQEGR-OH]",specific activation of OTR,human OT-R,specifically activated OTR
same,Emax,human OT-R,99.42 ± 6.77
same,activation of the oxytocin receptor,human OT-R,strongly activate the oxytocin receptor at a micromolar scale
H-ATSKNCPIA-OH [Peptide 4],specific activation of OTR,human OT-R,specifically activated OTR
same,Emax,human OT-R,304.6 ± 29.70
Elongation factor Tu [SEQ ID NO:14],immune cross-reaction with anti-oxytocin antibodies,anti-oxytocin antibodies; [1],immune cross-react with anti-oxytocin antibodies
H-KYIENISDE-OH [Peptide 14],specific activation of OTR,human OT-R,specifically activated OTR
same,Emax,human OT-R,221.5 ± 10.40
Glucose-6-phosphate isomerase [SEQ ID NO:18],immune cross-reaction with anti-oxytocin antibodies,anti-oxytocin antibodies,immune cross-react with anti-oxytocin antibodies
Elongation factor Tu [SEQ ID NO:17],immune cross-reaction with anti-oxytocin antibodies,anti-oxytocin antibodies; [1],immune cross-react with anti-oxytocin antibodies
H-KQFVHENELG-OH [Peptide 7],specific activation of OTR,human OT-R,specifically activated OTR
same,Emax,human OT-R,262.8 ± 35.64
"H-VDIQEFMIMPVG-OH [Peptide 9, Enolase 2 fragment 160-171; LG]",activation of the oxytocin receptor,human OT-R,strongly activate the oxytocin receptor at a micromolar scale
"H-CYFEDAGA-OH [OT-like peptide #13, Triosephosphate isomerase 61-68, H-CYFEDAGA-OH]",Emax of calcium release,human oxytocin receptor,17.9
"Fructose tagatose bisphosphate aldolase (protein, listed as Lactobacillus camelliae, Fructose tagatose bisphosphate aldolase, protein expressed by Lactobacillus camelliae) MFQAARKGHYAIGAFNTNNLEWTRALLKGAQELNVPILIQTSMGAAKYMGGYKLCKALIELEAESMNITVPVVIHLDHGNFEAAKEAIAAGYNSVMFDGHDLPFDENLEKTKEIVKLAHAKGISVEAEVGSIGGEEDGVIGEGELASVEEAKTLAATGIDFMAAGIGNIHGKYPSNWKGLHFDRLQEIADAVDLPLVLHGGSGIPQDQVEKAISMGIAKLNINTECQLAFAKATREYILANKDQEGKGYDPRKLLAPGTQAITDTFKEISGWMGTRPVKMVPEEIK",immune cross-reaction with anti-oxytocin antibodies,anti-oxytocin antibodies; [1],immune cross-react with anti-oxytocin antibodies
H-LTITNVPNS-OH,EC50 of calcium release,human oxytocin receptor,2.7 µM
same,Emax of calcium release,human oxytocin receptor,272
"2,5-didehydrogluconate reductase (protein, listed as Lactobacillus camelliae, 2,5-didehydrogluconate reductase, protein expressed by Lactobacillus camelliae) MAEISKMSDTYTLSNGVKIPIVGFGTWQTPDGDVAKHSVEVAIKDGYRHIDTAAMYRNEDSVGEGIKAGLAAAGLKRDDLFVTTKLNNNAHSFDLVQKAIDESLTKLGLDHVDLYLIHWPNPVSFRDSYPDSLKETWRGMEQVYKDGKARAIGISNFRQAHLDVIKADATVEPMVNQIFLNPSDLQPAVTKMNAENNILSEAYSPLGTGKLLGNEELAKVAAKYGKGVAQVLLRWSLQHGFLPLAKSVHDARIKENTELFDFTLSDEDMKTLDGMRGVAGLATDPDTTNF",immune cross-reaction with anti-oxytocin antibodies,anti-oxytocin antibodies; [1],immune cross-react with anti-oxytocin antibodies
"H-GFDRDCPVV-OH [OT-like peptide #16, Elongation factor Tu 164-172, H-GFDRDCPVV-OH]",Emax of calcium release,human oxytocin receptor,2.13
"H-DFVKNMITG-OH [OT-like peptide #17, Elongation factor Tu 89-97, H-DFVKNMITG-OH]",EC50 of calcium release,human oxytocin receptor,7.52 µM
same,Emax of calcium release,human oxytocin receptor,135
"H-MFQAARKG-OH [OT-like peptide #11, Fructose tagatose bisphosphate aldolase 1-8, H-MFQAARKG-OH]",Emax of calcium release,human oxytocin receptor,4.65
"H-VDIQEFMIMPVG-OH [OT-like peptide #9, Enolase 2 160-171, H-[…]-OH]",Emax of calcium release,human oxytocin receptor,119
"H-QYIQEGR-OH [OT-like peptide #6, Glucose-6-phosphate isomerase 313-319, H-QYIQEGR-OH]",EC50 of calcium release,human oxytocin receptor,3.79 µM
same,Emax of calcium release,human oxytocin receptor,99.4
"H-KTVVWNGPMG-OH [OT-like peptide #3, Phosphoglycerate kinase 317-326, H-KTVVWNGPMG-OH]",Emax of calcium release,human oxytocin receptor,302
"H-KFVNDNELG-OH [OT-like peptide #2, Glucose-6-phosphate isomerase 13-21, H-KFVNDNELG-OH]",EC50 of calcium release,human oxytocin receptor,3.21 µM
same,Emax of calcium release,human oxytocin receptor,165
"Triosephosphate isomerase (protein, listed as Lactobacillus camelliae, Triosephosphate isomerase, protein expressed by Lactobacillus camelliae) MAGNWKMNKNPEETQAFLDGVKGKLPESSKVQTVIAAPAIDLTTLVAGAKGTPLQTAAENCYFEDAGAFTGETSPKALKDMGLDYVVIGHSERRGYFHETDQDINKKAKAILKNGLLPIICCGESLDQREAGQTNDWVASQVEAALAGISAADVKNSVIAYEPIWAIGTGKTASADQAQEVVAHIRSIVAKLYDAETADAVRILYGGSVKPANVKELMAKPDIDGGLVGGASMDPESFVALANYQD",immune cross-reaction with anti-oxytocin antibodies,anti-oxytocin antibodies; [1],immune cross-react with anti-oxytocin antibodies
"H-DYVKNMITG-OH [OT-like peptide #1, Elongation factor Tu 87-95, H-DYVKNMITG-OH]",EC50 of calcium release,human oxytocin receptor,2.77 µM
same,Emax of calcium release,human oxytocin receptor,274
"H-SYFYNKEDG-OH [OT-like peptide #10, Enolase 246-254, H-SYFYNKEDG-OH]",Emax of calcium release,human oxytocin receptor,41.6
"H-ATSKNCPIA-OH [OT-like peptide #4, GMP synthase [glutamine-hydrolyzing] 154-162, H-ATSKNCPIA-OH]",EC50 of calcium release,human oxytocin receptor,3.09 µM
same,Emax of calcium release,human oxytocin receptor,305
H-KYIENISDE-OH,EC50 of calcium release,human oxytocin receptor,8.93 µM
same,Emax of calcium release,human oxytocin receptor,222
"H-DYIKNMITG-OH [OT-like peptide #8, Elongation factor Tu 88-96, H-DYIKNMITG-OH]",Emax of calcium release,human oxytocin receptor,140
"2,3-bisphosphoglycerate-dependent phosphoglycerate mutase (protein, listed as Lactobacillus camelliae, 2,3-bisphosphoglycerate-dependent phosphoglycerate mutase, protein expressed by Lactobacillus camelliae) MAKLVLIRHGQSEWNLSNQFTGWVDVDLSEKGTEEAKEAGRRIKKAGLEFDQAYTSVLTRAIKTLHYALEESDQLWIPETKTWRLNERHYGALQGQNKAEAAKKWGDEQVHIWRRSYDTLPPLLSADDEGSAAKDRRYANLDPRIIPGGENLKVTLERVIPFWEDHIAPDLLDGKNVIIAAHGNSLRALTKYIENISDEDIINLEMTTGEPVVYTFNDKLEVTDKVKLSK",immune cross-reaction with anti-oxytocin antibodies,anti-oxytocin antibodies; [1],immune cross-react with anti-oxytocin antibodies
"H-KQFVHENELG-OH [OT-like peptide #7, Glucose-6-phosphate isomerase 12-21, H-KQFVHENELG-OH]",EC50 of calcium release,human oxytocin receptor,2.57 µM
same,Emax of calcium release,human oxytocin receptor,263
"H-AYSPLGTGK-OH [OT-like peptide #12, 2,5-didehydrogluconate reductase 202-210, H-AYSPLGTGK-OH]",Emax of calcium release,human oxytocin receptor,5.25
"H-IYLRSNPLMK-OH [OT-like peptide #15, Probable phosphoketolase 40-49, H-IYLRSNPLMK-OH]",Emax of calcium release,human oxytocin receptor,5.36
